In the supplement of paper PMC10065799, “High-throughput profiling of sequence recognition by tyrosine kinases and SH2 domains using bacterial peptide display” (eLife, 2023):

Assays:
[1] = molecular target: Grb2 SH2 (UniProt P62993); assay: SH2 binding enrichment of the phosphorylated peptide, bacterial display (enrichment ratio); higher = better substrate or ligand; peptides without Tyr show the background
[2] = molecular target: c-Src SH2; assay: as above
[3] = molecular target: SHP2-C SH2; assay: as above
[4] = molecular target: Fyn (UniProt P06241); assay: phosphorylation enrichment, bacterial display (enrichment ratio); higher = better substrate or ligand; peptides without Tyr show the background
[5] = molecular target: FGFR1 (UniProt P11362); assay: as above
[6] = molecular target: EPHB1 (UniProt P54762); assay: as above
[7] = tested on: AncSZ; assay: as above
[8] = tested on: c-Abl (mouse); assay: as above
[9] = molecular target: EPHB2 (UniProt P29323); assay: as above
[10] = molecular target: MERTK (UniProt Q12866); assay: as above
[11] = molecular target: FGFR3 (UniProt P22607); assay: as above
[12] = molecular target: Fes (UniProt P07332); assay: as above
[13] = molecular target: Jak2 (UniProt O60674); assay: as above
[14] = molecular target: Hck (UniProt P08631); assay: as above
[15] = tested on: Fer (mouse); assay: as above
[16] = tested on: c-Src; assay: as above
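For SH2 binding enrichment of the phosphorylated peptide, bacterial display in this document: peptide library displayed on the E. coli surface as eCPX fusions, selected cells deep-sequenced, score is each peptide's frequency after selection divided by its frequency in the input.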
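For phosphorylation enrichment, bacterial display in this document: 11-residue human phosphosite peptides and single-mutation variants displayed on the E. coli surface, counted by deep sequencing, each peptide's frequency after selection divided by its frequency in the unselected input library; frequency after pTyr selection over input frequency; kinase dosed for 20-30% of maximal phosphorylation in three min.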

FGFR1, sequence (P11362 whole entry, looked up): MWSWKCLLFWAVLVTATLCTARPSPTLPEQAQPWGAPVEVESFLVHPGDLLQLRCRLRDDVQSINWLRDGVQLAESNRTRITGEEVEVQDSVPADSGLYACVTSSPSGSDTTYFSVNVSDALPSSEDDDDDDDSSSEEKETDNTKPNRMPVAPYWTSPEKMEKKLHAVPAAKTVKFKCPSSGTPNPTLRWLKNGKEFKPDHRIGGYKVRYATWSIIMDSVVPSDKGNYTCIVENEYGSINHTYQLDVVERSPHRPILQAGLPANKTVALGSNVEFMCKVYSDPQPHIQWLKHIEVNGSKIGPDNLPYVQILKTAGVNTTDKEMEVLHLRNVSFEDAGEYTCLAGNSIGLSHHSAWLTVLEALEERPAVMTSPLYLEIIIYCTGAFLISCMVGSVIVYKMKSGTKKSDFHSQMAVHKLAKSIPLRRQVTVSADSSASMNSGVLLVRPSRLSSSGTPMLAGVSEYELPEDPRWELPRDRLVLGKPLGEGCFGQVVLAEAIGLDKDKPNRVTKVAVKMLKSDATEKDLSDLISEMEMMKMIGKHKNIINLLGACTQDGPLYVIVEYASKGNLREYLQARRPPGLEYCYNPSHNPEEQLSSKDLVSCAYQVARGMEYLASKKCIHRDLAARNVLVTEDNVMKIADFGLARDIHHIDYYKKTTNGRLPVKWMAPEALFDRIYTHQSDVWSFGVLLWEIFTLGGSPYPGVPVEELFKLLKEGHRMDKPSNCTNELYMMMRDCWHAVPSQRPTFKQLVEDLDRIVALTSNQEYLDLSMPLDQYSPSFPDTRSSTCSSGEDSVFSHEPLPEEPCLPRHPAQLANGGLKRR
Fyn, sequence (P06241 whole entry, looked up): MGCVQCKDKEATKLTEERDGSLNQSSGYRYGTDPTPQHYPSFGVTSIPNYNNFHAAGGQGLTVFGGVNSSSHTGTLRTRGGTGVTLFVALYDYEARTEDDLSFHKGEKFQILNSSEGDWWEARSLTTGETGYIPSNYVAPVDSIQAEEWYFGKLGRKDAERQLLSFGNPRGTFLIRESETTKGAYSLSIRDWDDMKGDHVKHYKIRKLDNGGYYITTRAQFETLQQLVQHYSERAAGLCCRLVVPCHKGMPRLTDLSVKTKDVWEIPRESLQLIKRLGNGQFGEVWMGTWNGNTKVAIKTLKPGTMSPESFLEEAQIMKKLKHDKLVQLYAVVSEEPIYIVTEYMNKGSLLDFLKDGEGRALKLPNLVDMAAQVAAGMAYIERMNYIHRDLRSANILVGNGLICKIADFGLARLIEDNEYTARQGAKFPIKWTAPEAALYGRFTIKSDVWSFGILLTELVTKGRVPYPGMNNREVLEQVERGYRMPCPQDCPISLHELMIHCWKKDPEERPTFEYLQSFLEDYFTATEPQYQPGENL
Fes, sequence (P07332 whole entry, looked up): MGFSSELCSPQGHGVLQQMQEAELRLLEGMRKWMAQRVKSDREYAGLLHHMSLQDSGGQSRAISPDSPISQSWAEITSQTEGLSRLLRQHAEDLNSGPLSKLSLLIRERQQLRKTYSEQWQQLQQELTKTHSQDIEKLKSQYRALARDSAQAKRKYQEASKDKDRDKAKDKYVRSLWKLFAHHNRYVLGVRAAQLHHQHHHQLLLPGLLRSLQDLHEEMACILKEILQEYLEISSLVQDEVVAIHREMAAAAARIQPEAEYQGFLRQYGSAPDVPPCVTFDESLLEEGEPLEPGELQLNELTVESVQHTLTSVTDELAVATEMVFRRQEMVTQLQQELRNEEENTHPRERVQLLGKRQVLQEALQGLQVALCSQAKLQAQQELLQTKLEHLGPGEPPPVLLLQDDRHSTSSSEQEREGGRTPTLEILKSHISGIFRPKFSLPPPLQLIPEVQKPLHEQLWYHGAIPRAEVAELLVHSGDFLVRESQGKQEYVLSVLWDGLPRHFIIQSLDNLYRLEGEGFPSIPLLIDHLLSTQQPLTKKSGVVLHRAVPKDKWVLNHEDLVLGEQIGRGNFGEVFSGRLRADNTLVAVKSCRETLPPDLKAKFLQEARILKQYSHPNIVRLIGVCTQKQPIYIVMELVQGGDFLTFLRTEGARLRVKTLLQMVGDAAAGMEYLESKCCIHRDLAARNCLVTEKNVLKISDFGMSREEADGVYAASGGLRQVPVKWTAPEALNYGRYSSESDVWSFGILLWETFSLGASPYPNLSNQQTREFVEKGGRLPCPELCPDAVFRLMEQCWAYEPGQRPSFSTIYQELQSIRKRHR
EPHB2, sequence (P29323 whole entry, looked up): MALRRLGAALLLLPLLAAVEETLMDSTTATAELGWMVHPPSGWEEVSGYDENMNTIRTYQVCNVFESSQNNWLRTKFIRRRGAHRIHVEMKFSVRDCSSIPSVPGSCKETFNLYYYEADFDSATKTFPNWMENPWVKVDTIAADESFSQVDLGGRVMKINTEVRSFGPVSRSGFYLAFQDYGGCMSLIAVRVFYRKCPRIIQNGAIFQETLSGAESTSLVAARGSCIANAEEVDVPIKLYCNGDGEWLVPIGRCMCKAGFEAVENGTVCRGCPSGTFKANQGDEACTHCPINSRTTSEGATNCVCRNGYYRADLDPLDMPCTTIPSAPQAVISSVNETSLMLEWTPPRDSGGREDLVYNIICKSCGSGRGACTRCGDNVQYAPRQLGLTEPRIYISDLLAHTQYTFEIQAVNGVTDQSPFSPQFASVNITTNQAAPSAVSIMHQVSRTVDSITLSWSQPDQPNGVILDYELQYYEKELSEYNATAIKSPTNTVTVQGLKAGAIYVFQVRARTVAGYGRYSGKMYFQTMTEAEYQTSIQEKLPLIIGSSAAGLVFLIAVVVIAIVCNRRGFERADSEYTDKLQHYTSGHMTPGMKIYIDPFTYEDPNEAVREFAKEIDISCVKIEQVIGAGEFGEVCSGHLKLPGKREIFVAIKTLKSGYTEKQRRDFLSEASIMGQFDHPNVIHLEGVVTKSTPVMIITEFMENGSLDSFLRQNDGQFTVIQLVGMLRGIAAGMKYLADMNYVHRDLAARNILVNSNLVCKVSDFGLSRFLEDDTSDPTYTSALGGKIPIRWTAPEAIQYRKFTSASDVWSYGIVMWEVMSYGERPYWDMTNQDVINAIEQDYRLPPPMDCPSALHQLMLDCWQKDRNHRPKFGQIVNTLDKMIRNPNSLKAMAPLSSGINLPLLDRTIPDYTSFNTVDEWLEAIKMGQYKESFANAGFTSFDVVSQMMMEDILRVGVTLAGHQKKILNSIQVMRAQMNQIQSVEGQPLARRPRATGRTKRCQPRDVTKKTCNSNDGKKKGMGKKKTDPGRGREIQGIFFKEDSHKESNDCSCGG
Hck, sequence (P08631 whole entry, looked up): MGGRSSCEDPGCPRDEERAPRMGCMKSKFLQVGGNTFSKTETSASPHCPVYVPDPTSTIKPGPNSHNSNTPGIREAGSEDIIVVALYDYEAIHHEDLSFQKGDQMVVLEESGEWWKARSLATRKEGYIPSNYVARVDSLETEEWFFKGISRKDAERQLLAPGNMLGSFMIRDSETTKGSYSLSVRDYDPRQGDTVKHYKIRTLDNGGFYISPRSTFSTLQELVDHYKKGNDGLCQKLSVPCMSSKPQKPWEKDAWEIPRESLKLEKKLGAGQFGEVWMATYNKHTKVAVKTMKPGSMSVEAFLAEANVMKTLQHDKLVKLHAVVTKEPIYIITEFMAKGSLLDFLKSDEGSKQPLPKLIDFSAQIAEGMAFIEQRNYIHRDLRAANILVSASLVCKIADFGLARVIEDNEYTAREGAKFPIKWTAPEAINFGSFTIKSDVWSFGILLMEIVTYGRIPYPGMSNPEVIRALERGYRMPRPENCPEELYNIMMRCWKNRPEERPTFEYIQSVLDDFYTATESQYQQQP
Jak2, sequence (O60674 whole entry, looked up): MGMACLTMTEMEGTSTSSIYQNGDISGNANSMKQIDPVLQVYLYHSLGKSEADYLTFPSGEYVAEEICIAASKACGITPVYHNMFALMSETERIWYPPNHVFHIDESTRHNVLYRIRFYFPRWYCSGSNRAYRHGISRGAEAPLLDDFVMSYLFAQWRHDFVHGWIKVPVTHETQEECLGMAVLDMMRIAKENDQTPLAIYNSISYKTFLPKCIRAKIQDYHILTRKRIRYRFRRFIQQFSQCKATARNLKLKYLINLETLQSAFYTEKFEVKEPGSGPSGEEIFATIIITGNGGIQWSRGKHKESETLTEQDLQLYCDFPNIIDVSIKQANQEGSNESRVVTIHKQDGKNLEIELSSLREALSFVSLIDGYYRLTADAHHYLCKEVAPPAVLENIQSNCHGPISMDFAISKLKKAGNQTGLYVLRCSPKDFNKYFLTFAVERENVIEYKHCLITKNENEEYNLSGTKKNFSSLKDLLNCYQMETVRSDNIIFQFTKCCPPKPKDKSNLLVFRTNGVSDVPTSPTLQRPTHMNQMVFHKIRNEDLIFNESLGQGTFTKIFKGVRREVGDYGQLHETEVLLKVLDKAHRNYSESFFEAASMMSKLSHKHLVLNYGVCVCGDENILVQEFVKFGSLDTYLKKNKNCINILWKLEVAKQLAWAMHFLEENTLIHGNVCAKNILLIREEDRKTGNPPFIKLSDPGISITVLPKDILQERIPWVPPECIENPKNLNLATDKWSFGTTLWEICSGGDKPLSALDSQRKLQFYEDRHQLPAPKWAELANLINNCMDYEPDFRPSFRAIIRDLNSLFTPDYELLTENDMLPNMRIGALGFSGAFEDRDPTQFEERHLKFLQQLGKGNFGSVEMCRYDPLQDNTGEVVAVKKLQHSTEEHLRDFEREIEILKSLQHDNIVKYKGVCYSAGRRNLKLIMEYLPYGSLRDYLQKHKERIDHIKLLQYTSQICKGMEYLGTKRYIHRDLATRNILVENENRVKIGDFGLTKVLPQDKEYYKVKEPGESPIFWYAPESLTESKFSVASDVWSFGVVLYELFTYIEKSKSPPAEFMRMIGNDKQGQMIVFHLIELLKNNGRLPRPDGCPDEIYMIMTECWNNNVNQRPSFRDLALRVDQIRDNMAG

Sequence | SH2 binding enrichment [1] | SH2 binding enrichment [2] | SH2 binding enrichment [3] | phosphorylation enrichment [4] | phosphorylation enrichment [5] | phosphorylation enrichment [6] | phosphorylation enrichment [7] | phosphorylation enrichment [8] | phosphorylation enrichment [9] | phosphorylation enrichment [10] | phosphorylation enrichment [11] | phosphorylation enrichment [12] | phosphorylation enrichment [13] | phosphorylation enrichment [14] | phosphorylation enrichment [15] | phosphorylation enrichment [16]
CTTIFYNFMCN [TP53_Y234_H233Y_YF] | 2.09 | 1.45 | 1.8 | 0.592 | 1.05 | 0.686 | 1.12 | 0.597 | 0.634 | 1.93 | 1.12 | 1.42 | 1.28 | 0.562 | 1.05 | 1.69
DDKEFYSVHNK [MET_Y1235_Y1230D_YF] | 0.831 | 0.486 | 0.621 | 0.413 | 0.525 | 0.488 | 0.882 | 0.828 | 0.527 | 0.422 | 0.571 | 0.99 | 0.854 | 0.453 | 0.47 | 0.531
DEDYLCREELA [POR_Y575_Y575C] | 0.948 | 0.444 | 0.917 | 0.878 | 0.683 | 0.842 | 1.68 | 0.737 | 0.725 | 0.676 | 1.43 | 1.54 | 0.929 | 0.99 | 0.812 | 0.556
DEEEEYEYMNR [ERBB3_Y1197_D1194E] | 0.817 | 0.526 | 0.645 | 0.567 | 0.536 | 0.493 | 1.17 | 0.631 | 0.625 | 0.404 | 0.665 | 1.17 | 1 | 0.484 | 0.466 | 0.408
DENCFYTRAAS [RPS19_Y54_W52C] | 0.868 | 0.942 | 3.23 | 0.569 | 0.594 | 0.587 | 1 | 0.675 | 0.554 | 0.461 | 0.728 | 0.936 | 0.841 | 0.576 | 0.485 | 0.722
DENRFYTRAAS [RPS19_Y54_W52R] | 1.11 | 0.876 | 0.789 | 0.488 | 0.515 | 0.497 | 1.01 | 0.684 | 0.478 | 0.45 | 0.644 | 0.907 | 0.721 | 0.466 | 0.478 | 0.494
DENWFYTRAAF [RPS19_Y54_S59F] | 0.73 | 0.571 | 0.96 | 0.47 | 0.586 | 0.681 | 1.25 | 0.868 | 0.594 | 0.55 | 0.786 | 1.32 | 1.48 | 0.629 | 0.571 | 0.534
DFLEKYFKFGS [NNMT_Y24_YF] | 0.764 | 0.579 | 0.386 | 0.437 | 0.491 | 0.525 | 1.12 | 0.936 | 0.587 | 0.564 | 0.826 | 1.41 | 1.8 | 0.521 | 0.514 | 0.627
DFPGIYSGFDD [POLR1C_Y33_N32I_YF] | 0.707 | 0.579 | 0.531 | 9.82 | 0.531 | 0.692 | 1.31 | 0.806 | 0.585 | 0.814 | 0.768 | 1.3 | 1.1 | 6.28 | 0.782 | 7.13
DFRTTYVNANE [KCNH2_Y475_N470D] | 23.1 | 2.81 | 2.23 | 0.491 | 0.414 | 0.366 | 0.732 | 0.405 | 0.512 | 0.415 | 0.596 | 0.781 | 0.649 | 0.44 | 0.38 | 0.378
DFTSRYLNASD [PKHD1_Y828] | 1.25 | 0.633 | 0.779 | 0.468 | 0.469 | 0.46 | 0.797 | 0.512 | 0.407 | 0.511 | 0.572 | 0.893 | 0.616 | 0.47 | 0.45 | 0.43
DGFIDYAEFAK [MCFD2_Y138_YF] | 0.829 | 0.397 | 0.753 | 0.674 | 0.522 | 0.793 | 1.13 | 0.728 | 0.718 | 0.468 | 0.647 | 1.23 | 1.16 | 0.48 | 0.456 | 0.675
DGSALYTGSAL [COL6A3_Y524] | 0.713 | 0.382 | 0.641 | 0.84 | 0.313 | 0.418 | 0.612 | 0.459 | 0.439 | 0.404 | 0.474 | 0.638 | 0.591 | 0.858 | 0.643 | 0.536
DLDFTYIFPNI [PTEN_Y27_L25F_YF] | 0.758 | 0.47 | 0.435 | 4.4 | 2.87 | 0.996 | 3.5 | 0.8 | 0.618 | 1 | 2.27 | 1.33 | 1.83 | 1.16 | 0.627 | 2.15
DLLNSYIENEG [HSPA4L_Y600] | 1.04 | 0.693 | 0.656 | 0.53 | 0.528 | 0.573 | 0.996 | 0.585 | 0.561 | 0.375 | 0.875 | 0.999 | 1.17 | 0.484 | 0.545 | 0.343
DLTQDSEEWKR [ORC6_Y232_Y232S] | 0.837 | 0.588 | 0.823 | 0.463 | 0.495 | 0.616 | 1.02 | 0.676 | 0.576 | 0.489 | 0.661 | 1.09 | 1.07 | 0.614 | 0.456 | 0.476
DPEAAYTTRGG [EPHA3_Y779] | 0.872 | 0.357 | 0.588 | 0.531 | 0.376 | 0.466 | 0.629 | 0.559 | 0.385 | 0.374 | 0.507 | 0.717 | 0.652 | 0.468 | 0.45 | 0.475
DQNVEYKGTVW [FHL1_Y117] | 0.866 | 0.424 | 0.577 | 0.496 | 0.455 | 0.558 | 0.95 | 0.843 | 0.545 | 0.496 | 0.755 | 1.17 | 0.938 | 0.466 | 0.425 | 0.488
DRPASYKKKSM [PDGFRA_Y768] | 0.803 | 0.412 | 0.962 | 0.365 | 0.324 | 0.343 | 0.383 | 0.546 | 0.367 | 0.418 | 0.347 | 0.517 | 0.494 | 0.39 | 0.306 | 0.409
DRTVHYVDEKG [IFT140_Y216_G212R] | 0.979 | 0.503 | 0.916 | 0.429 | 0.413 | 0.431 | 0.666 | 0.46 | 0.436 | 0.393 | 0.515 | 0.742 | 0.597 | 0.441 | 0.368 | 0.341

More lines, main results first:

SH2 binding enrichment [1] | SH2 binding enrichment [2] | SH2 binding enrichment [3] | Sequence | phosphorylation enrichment [4] | phosphorylation enrichment [5] | phosphorylation enrichment [6] | phosphorylation enrichment [7] | phosphorylation enrichment [8] | phosphorylation enrichment [9] | phosphorylation enrichment [10] | phosphorylation enrichment [11] | phosphorylation enrichment [12] | phosphorylation enrichment [13] | phosphorylation enrichment [14] | phosphorylation enrichment [15] | phosphorylation enrichment [16]
0.923 | 0.982 | 1.13 | CTTIHQNYMCN [TP53_Y234_Y234Q] | 0.361 | 0.463 | 0.536 | 0.735 | 0.695 | 0.432 | 0.503 | 0.56 | 0.917 | 0.796 | 0.41 | 0.387 | 0.414
1.71 | 1.72 | 1.57 | CTTIHYNFMCI [TP53_Y234_N239I_YF] | 0.477 | 0.598 | 0.621 | 1.05 | 0.809 | 0.673 | 0.392 | 0.707 | 1.26 | 0.969 | 0.529 | 0.706 | 0.434
1.79 | 2.25 | 1.96 | CTTIHYNFMCS [TP53_Y234_N239S_YF] | 0.502 | 0.572 | 0.634 | 0.846 | 0.548 | 0.507 | 0.5 | 0.799 | 0.902 | 0.823 | 0.603 | 0.495 | 0.571
2.04 | 1.66 | 1.99 | CTTIHYNFMCT [TP53_Y234_N239T_YF] | 0.459 | 0.538 | 0.54 | 1.06 | 0.839 | 0.485 | 0.419 | 0.752 | 1.01 | 0.997 | 0.501 | 0.501 | 0.551
1.61 | 1.48 | 1.67 | CTTIHYNFRCN [TP53_Y234_M237R_YF] | 0.471 | 0.487 | 0.536 | 0.763 | 0.584 | 0.499 | 0.386 | 0.637 | 0.804 | 0.56 | 0.439 | 0.462 | 0.469
1.17 | 1.83 | 1.31 | CTTIHYNYMRN [TP53_Y234_C238R] | 0.52 | 0.521 | 0.605 | 0.805 | 0.515 | 0.502 | 0.468 | 0.577 | 0.858 | 0.673 | 0.546 | 0.543 | 0.501
1.08 | 6.3 | 3.24 | CTTVHYNYMCN [TP53_Y234_I232V] | 0.448 | 0.52 | 0.542 | 0.816 | 0.557 | 0.496 | 0.469 | 0.622 | 0.915 | 0.768 | 0.468 | 0.77 | 0.492
0.784 | 1.16 | 0.52 | CVAARYMDVKG [WFIKKN2_Y93] | 0.419 | 0.445 | 0.535 | 0.655 | 0.56 | 0.516 | 0.435 | 0.549 | 0.887 | 0.696 | 0.43 | 0.442 | 0.313
0.837 | 1.72 | 0.665 | DELDKYSEVLK [TPM1_Y60_A63V] | 0.599 | 0.616 | 0.667 | 1.49 | 0.907 | 0.603 | 0.48 | 0.923 | 1.66 | 1.37 | 0.558 | 0.624 | 0.62
0.9 | 0.458 | 0.534 | DFPIGYPSYLA [TBCK_Y153] | 0.438 | 0.481 | 0.406 | 0.722 | 0.619 | 0.457 | 0.463 | 0.55 | 0.902 | 0.829 | 0.422 | 0.582 | 0.501
0.655 | 1.02 | 1.07 | DGNTRYSTFSE [TKTL1_Y318_D315N] | 0.319 | 0.402 | 0.473 | 0.789 | 0.746 | 0.48 | 0.339 | 0.533 | 0.969 | 1.01 | 0.418 | 0.383 | 0.569
0.982 | 1.2 | 0.7 | DLNATYCTIQG [U2SURP_Y634_R635C] | 9.64 | 1.06 | 7.15 | 1.31 | 0.78 | 5.72 | 2.36 | 0.954 | 1.07 | 0.845 | 7.17 | 1 | 5.32
0.729 | 2 | 0.698 | DPTNTYARPAE [SGMS2_Y24] | 0.457 | 0.598 | 0.466 | 1.02 | 0.696 | 0.581 | 0.516 | 0.481 | 0.785 | 0.639 | 0.506 | 0.33 | 0.372
